Measurements reported in patent US20230416383A1.

How the values were obtained:
Experiment in all cases: SPR, mean +/- SD (n = 3)
[1] = biological target: Cynomolgus FcγRIIa (cynomolgus monkey)
Human FcγRIIa (human) = Human FcγRIIa (human) (UniProt P12318)
[2] = biological target: recombinant Human Fc gamma RIIIA/CD16a (V176) (human) (UniProt P08637)
[3] = biological target: recombinant Human Fc gamma RIIIA/CD16a (V176F) (human) (UniProt P08637)
Human FcγRIIIb (human) = Human FcγRIIIb (human) (UniProt O75015)
[4] = biological target: human FcγRI (hCD64) (human) (UniProt P12314)
[5] = biological target: Cynomolgus FcRn (cynomolgus monkey) (UniProt Q8SPV9)
[6] = biological target: Cynomolgus FcγRIIb (cynomolgus monkey)
Human FcγRIIb (human) = Human FcγRIIb (human) (UniProt P31994)
[7] = biological target: Cynomolgus FcγRI (cynomolgus monkey)
[8] = biological target: Cynomolgus FcγRIII (cynomolgus monkey) (UniProt Q8SPW2)
Chain of UniProt Q8SPW2 (Q8SPW2 17-208 limits assumed): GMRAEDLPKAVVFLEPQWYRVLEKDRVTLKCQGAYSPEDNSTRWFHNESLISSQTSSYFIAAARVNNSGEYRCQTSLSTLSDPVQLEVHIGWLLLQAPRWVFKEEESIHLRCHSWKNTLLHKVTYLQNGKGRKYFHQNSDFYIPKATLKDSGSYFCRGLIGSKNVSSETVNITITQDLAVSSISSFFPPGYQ

Chain of UniProt P31994 (P31994 46-217 limits assumed): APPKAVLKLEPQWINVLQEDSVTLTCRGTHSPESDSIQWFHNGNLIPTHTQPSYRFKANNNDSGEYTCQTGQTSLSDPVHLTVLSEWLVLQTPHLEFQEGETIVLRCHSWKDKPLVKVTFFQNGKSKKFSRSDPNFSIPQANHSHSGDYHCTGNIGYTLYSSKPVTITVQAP
Chain of UniProt P12318 (P12318 36-218 limits assumed): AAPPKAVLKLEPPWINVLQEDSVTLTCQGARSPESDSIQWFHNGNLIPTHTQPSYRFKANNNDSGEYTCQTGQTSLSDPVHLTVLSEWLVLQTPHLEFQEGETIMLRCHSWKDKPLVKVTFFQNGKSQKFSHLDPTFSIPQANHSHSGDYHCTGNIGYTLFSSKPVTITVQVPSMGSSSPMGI
Chain of UniProt O75015 (O75015 17-200 limits assumed): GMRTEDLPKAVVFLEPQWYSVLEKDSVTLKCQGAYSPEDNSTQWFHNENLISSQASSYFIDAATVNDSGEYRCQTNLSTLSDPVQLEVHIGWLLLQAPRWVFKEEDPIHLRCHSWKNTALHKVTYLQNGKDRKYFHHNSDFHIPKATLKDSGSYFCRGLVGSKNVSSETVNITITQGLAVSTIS
Chain of UniProt P12314 (P12314 16-288 limits assumed): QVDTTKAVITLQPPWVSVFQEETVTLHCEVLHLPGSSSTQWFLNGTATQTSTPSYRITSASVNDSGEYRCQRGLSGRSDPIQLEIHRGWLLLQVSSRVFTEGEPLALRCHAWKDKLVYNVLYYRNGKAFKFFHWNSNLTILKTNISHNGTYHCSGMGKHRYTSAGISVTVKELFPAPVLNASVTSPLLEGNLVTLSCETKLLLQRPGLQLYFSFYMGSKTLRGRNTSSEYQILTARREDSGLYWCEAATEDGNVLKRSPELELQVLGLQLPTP

Work on Human IgG1 control (antibody) yielded a Kd [1] of 6340 nM, a Kd (Human FcγRIIa (human)) of 1570 nM and a Kd [2] of 575 nM. For the same substance, the Kd [3] was 2820 nM, the Kd (Human FcγRIIIb (human)) was 7540 nM and the Kd [4] was 0.2 nM. The Kd [5] was 237 nM, the Kd [6] was 2320 nM and the Kd (Human FcγRIIb (human)) was 4230 nM. It also gave a Kd [7] of 18 nM and a Kd [8] of 580 nM.
